T1: recombinant human trimeric ARG2 enzyme (Homo sapiens, UniProt P78540, E275H/R327K)
T1 construct: His10 (after a GGG linker) (C); made in house; host or cells: E. coli BL21 (DE3)
T1 sequence (P78540 with tags, fused parts or gaps E275H/R327K): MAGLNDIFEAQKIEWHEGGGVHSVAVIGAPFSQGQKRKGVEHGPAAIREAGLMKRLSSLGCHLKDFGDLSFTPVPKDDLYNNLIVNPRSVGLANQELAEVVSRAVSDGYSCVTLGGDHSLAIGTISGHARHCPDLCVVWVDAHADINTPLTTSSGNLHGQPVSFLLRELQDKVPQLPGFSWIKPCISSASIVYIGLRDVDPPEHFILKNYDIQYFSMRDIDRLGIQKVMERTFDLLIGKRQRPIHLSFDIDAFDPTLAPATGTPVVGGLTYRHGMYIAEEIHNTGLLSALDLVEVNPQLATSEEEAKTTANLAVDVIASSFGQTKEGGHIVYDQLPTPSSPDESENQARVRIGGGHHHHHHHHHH

T2: ARG2 (Homo sapiens, UniProt P78540)
T2 sequence (P78540 23-354): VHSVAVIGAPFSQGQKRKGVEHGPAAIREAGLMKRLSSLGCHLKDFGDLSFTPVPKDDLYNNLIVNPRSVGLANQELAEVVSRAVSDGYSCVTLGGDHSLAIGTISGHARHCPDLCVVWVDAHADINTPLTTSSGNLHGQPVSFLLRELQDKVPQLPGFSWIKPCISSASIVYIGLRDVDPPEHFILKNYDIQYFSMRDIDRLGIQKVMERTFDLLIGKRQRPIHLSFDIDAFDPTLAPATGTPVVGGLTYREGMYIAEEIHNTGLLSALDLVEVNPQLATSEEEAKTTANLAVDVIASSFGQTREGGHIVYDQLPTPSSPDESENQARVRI


Key:
[1] = molecular target: T1, recombinant human trimeric ARG2 enzyme; assay: Direct binding HTRF assay, human trimeric ARG2; details: purified scFv, FIG. 1A
Experimental: Unpurified scFv from periplasmic preparations were screened in a homogeneous time-resolved fluorescence (HTRF™, CisBio Bioassays, France) binding assay using a Pherastar plate reader (BMG Labtech, Germany). In this assay, binding of unpurified scFv to recombinant human trimeric ARG2 enzyme was assessed by measuring the fluorescence resonance energy transfer (FRET) between the c-myc tagged scFv and the biotinylated enzyme using streptavidin cryptate and anti-c-myc-XL665 detection reagents (CisBio International, France; cat: 610SAKLB and 61 MYCXLB respectively). […] Assay plates were incubated overnight at 4° C. prior to reading time resolved fluorescence on a Pherastar plate reader ([…]) using an excitation wavelength of 320 nm and measuring the emission at 620 nm and 665 nm (100 flashes).
Data were analysed by calculating % Delta F values for each sample. % Delta F was determined according to equation 1.
The scFv with unique protein sequences were expressed in E. coli and purified by affinity chromatography (essentially as described (Bannister et al., 2006)). The ARG2 binding profile of each purified scFv was determined by testing a dilution series of the purified scFv in the HTRF™ assay described in section 1.4, substituting the unpurified scFv periplasmic preparation with the purified scFv. […] Data were analysed by calculating the % Delta F values as described in section 1.4. […]

ARG2 = molecular target: T2, ARG2; assay: Size-exclusion chromatography of ARG2-Fab binding stoichiometry; parameters: human ARG2 (aa23-354); His10 (C); made in house; host or cells: E. coli BL21 (DE3); details: FIG. 23A
Experimental: ARG2 and Fabs were analysed at concentrations of 8 μM (referring to monomers) in SEC buffer containing 25 mM tris at pH 7.4 and 150 mM NaCl. ARG2-Fab complexes were formed by mixing both ARG2 and Fabs at concentrations of 8 μM (referring to monomers) in SEC buffer and incubation on ice for 1 h. For size-exclusion chromatography, […] of sample were injected into a 100 μl loop connected to a Superose 6 Increase 10/300 GL column (GE Healthcare) which was mounted to an AKTAexpress FPLC system (GE Healthcare). The column was equilibrated in SEC buffer, and SEC was performed at a flow rate of 0.5 ml/min. Molecular-weight estimates are based on the retention volumes seen for β-amylase, bovine serum albumin and carbonic anhydrase, which were analysed on the same FPLC system under identical conditions.

Row | Molecule | binding to biotinylated recombinant human trimeric ARG2 enzyme [1] | size-exclusion peak of 1:1 molar mixture of ARG2 and Fab (ARG2; 8 μM each) [kDa] | Fabs bound to one ARG2 trimer (ARG2; from size-exclusion profile)
1 | C0020065: anti-ARG2 antibody, alternate lead isolation clone, VH SEQ ID NO: 2, VL SEQ ID NO: 7 (antibody, listed as Homo sapiens, V domains shown, C0020065) VH: GVNLRESGGGVVQPGRSLRLSCAASGFTFSSYAMHWVRQAPGKGLEWVAVISYDGSNKYYVDSVKGRFTISRDNSKNTLYLQMNSLRAEDTAVYYCARDSSQLWFDYWGRGTLVTVSS VL: QSVVTQPPSVSGAPGQRVTISCTGSSSNIGTGYDVHWYQQLPGTAPKLLIYGNSNRPSGVPDRFSGSKSGTSASLAITGLQAEDEADYYCQSYDSSLSGSVVFGGGTQLTVL | bound | – | –
2 | C0021139: anti-ARG2 antibody, VH SEQ ID NO: 212, VL SEQ ID NO: 217 (antibody, listed as Homo sapiens, V domains shown, C0021139) VH: EVQLLESGGGLVQPGGSLRLSCAASGFTFQYDYQVWVRQAPGKGLEWVSAISGSGGSTYYADSVKGRFTISRDNSKNTLYLQMNSLRAEDTAVYYCARLRADLGLYMDLWGRGTLVTVSS VL: QSVLTQPPSVSAAPGQKVTISCSGSSSNIGNHYVSWYQQLPGTAPKLLIYDNSERTSGIPDRFSGSKSGTSATLGITGLQTGDEADYYCGTWDELTSNLVFGGGTKLTVL | – | 275 | three Fabs
